Measurements: the RNAGym collection of RNA variant scans (doi:10.7554/elife.80360)

B1: HDV Ribozyme (parent)
chain: GGCCGGCAUGGUCCCAGCCUCCUCGCUGGCGCCGGCUGGGCAACAUUCCGAGGGGACCGUCCCCUCGGUAAUGGCGAAUGGGACCCA

Variants of: B1
Experiment: self-cleavage, relative activity (ratio to wild type); higher = more cleavage; co-transcriptional

Compared with C19A A87U, C7A C33U is lower in self-cleavage: 0.223 for the first, 0.148 for the second.

Compared with C33A A43G, G17C C48U is higher in self-cleavage: 0 for the first, 0.175 for the second.

Compared with G31U A42U, G2U C4U is lower in self-cleavage: 0.104 for the first, 0.0755 for the second.

Going from G2U C41A to G25C C63G, the self-cleavage rises from 0.0589 to 0.0875.

Going from U65G A70C to U69G U79C, the self-cleavage falls from 0.601 to 0.326.

Compared with G38A U72C, G40U A71C is higher in self-cleavage: 0.108 for the first, 0.327 for the second.

Going from G35U G74U to G28C C30U, the self-cleavage falls from 0.182 to 0.0791.

First: G40A C61A
Second: G17U C86U
The self-cleavage of the first is higher: 0.839 for the first, 0.612 for the second.

Compared with C21A C36U, G2A G53C is higher in self-cleavage: 0.0339 for the first, 0.348 for the second.

First: C41A A83C
Second: G25A A77G
The self-cleavage of the first is higher: 0.312 for the first, 0 for the second.

First: U9G G53U
Second: G40A U65G
The self-cleavage of the first is higher: 1.1 for the first, 0.601 for the second.

Going from C41G A70G to C4U G53U, the self-cleavage falls from 0.929 to 0.831.

First: U47A G54A
Second: A56C G73U
The self-cleavage of the first is higher: 0.95 for the first, 0.521 for the second.

First: G2U C64U
Second: C14G A78U
The self-cleavage of the first is lower: 0.111 for the first, 0.185 for the second.

First: C62A A87G
Second: U23A G35U
The self-cleavage of the first is higher: 0.867 for the first, 0.431 for the second.

First: G35C A71G
Second: G5U C24G
The self-cleavage of the first is higher: 0.262 for the first, 0 for the second.

Going from C3U G53U to U9G A43C, the self-cleavage falls from 0.779 to 0.415.

First: G38C A83U
Second: C7A U79G
The self-cleavage of the first is lower: 0.0361 for the first, 0.192 for the second.

Compared with C24G C86U, C22G C48A is lower in self-cleavage: 0.17 for the first, 0.141 for the second.

First: C26U A77G
Second: U12C G40A
The self-cleavage of the first is higher: 0.872 for the first, 0.305 for the second.

First: G52A C86A
Second: C3U A42C
The self-cleavage of the first is higher: 0.9 for the first, 0.181 for the second.

Compared with U72A U79A, G28U G80A is lower in self-cleavage: 0.536 for the first, 0.0681 for the second.

First: G59U G73A
Second: C26A G73A
The self-cleavage of the first is lower: 0.644 for the first, 0.89 for the second.

Compared with U12G U37C, U9A G52U is higher in self-cleavage: 0.692 for the first, 0.858 for the second.

Compared with C62G U69G, C3A C14G is lower in self-cleavage: 0.804 for the first, 0.17 for the second.

Compared with C41G G55C, C62G U65A is lower in self-cleavage: 0.723 for the first, 0.166 for the second.

First: G17C U20G
Second: C30A A77C
The self-cleavage of the first is higher: 0.128 for the first, 0.0852 for the second.

First: C15G C75U
Second: C13A A45C
The self-cleavage of the first is higher: 0.237 for the first, 0.0707 for the second.

Compared with G52C A78G, U47C U60C is higher in self-cleavage: 0.787 for the first, 1.05 for the second.

First: G11C C84U
Second: C4U C19A
The self-cleavage of the first is higher: 0.18 for the first, 0.0678 for the second.

Compared with C32U G82U, A8C G35A is lower in self-cleavage: 0.256 for the first, 0.142 for the second.

Going from G50C G53A to C15A G31A, the self-cleavage falls from 0.665 to 0.16.

First: G25A C33G
Second: C24G G52C
The self-cleavage of the first is lower: 0.0228 for the first, 0.172 for the second.

Going from C7G C62A to C36A G39C, the self-cleavage rises from 0 to 0.128.

Going from C26G C49A to A51U G52A, the self-cleavage rises from 0.95 to 1.15.

Compared with C30A A51G, G10A G29C is lower in self-cleavage: 0.361 for the first, 0.0767 for the second.

Going from U46C G53U to U9A G25C, the self-cleavage falls from 0.831 to 0.0615.

Compared with U37C U47C, G52C C63U is higher in self-cleavage: 0.791 for the first, 0.919 for the second.

Going from G10C C64A to C4G G17U, the self-cleavage falls from 0.504 to 0.

First: G1C G74U
Second: G38U G55C
The self-cleavage of the first is lower: 0.133 for the first, 0.19 for the second.

First: C36U C57U
Second: C30U C32U
The self-cleavage of the first is lower: 0.679 for the first, 0.7 for the second.

Going from C33G C62A to U23G U65G, the self-cleavage rises from 0.225 to 0.674.

Compared with U20C G28U, A51C A56G is higher in self-cleavage: 0.119 for the first, 0.831 for the second.

Going from U37C G39U to G5A C13A, the self-cleavage falls from 0.564 to 0.0369.

First: A8U U46G
Second: C33G G76U
The self-cleavage of the first is higher: 0.604 for the first, 0.116 for the second.

Going from C30G G74U to C3A U65C, the self-cleavage rises from 0.128 to 0.602.

Going from C7A U69G to A8U G11C, the self-cleavage falls from 0.751 to 0.0978.

Going from U9C C32G to G28C U37C, the self-cleavage rises from 0 to 0.101.

Compared with G28U C41G, C3G U60G is higher in self-cleavage: 0.116 for the first, 0.773 for the second.

Going from C61U A83U to G35A A56C, the self-cleavage falls from 0.456 to 0.346.

Going from G10A G52A to G10A G54A, the self-cleavage falls from 0.749 to 0.591.

First: G34C G50U
Second: U9G U12C
The self-cleavage of the first is lower: 0.175 for the first, 0.923 for the second.

First: G2C A45C
Second: G31U A77C
The self-cleavage of the first is higher: 0.0528 for the first, 0.0489 for the second.

Going from C48A A71C to U60G U65C, the self-cleavage rises from 0.688 to 1.17.

Compared with A45U G55U, A43U U46A is lower in self-cleavage: 0.698 for the first, 0.653 for the second.

Compared with C15G C44G, G11A U47A is lower in self-cleavage: 0.434 for the first, 0.249 for the second.

Going from C18A C85U to G6U C85A, the self-cleavage rises from 0.158 to 0.394.

Compared with G2U C57U, G5A G34A is higher in self-cleavage: 0.0365 for the first, 0.0978 for the second.

Compared with G25C G50A, G29C U69C is lower in self-cleavage: 0.0354 for the first, 0 for the second.

Compared with C14U A43G, C22A C24G is lower in self-cleavage: 0.643 for the first, 0 for the second.

Going from C18A C41U to C14U G55C, the self-cleavage rises from 0.0339 to 1.05.

Going from C7A G52A to G50U G74A, the self-cleavage falls from 0.629 to 0.453.

Compared with A16G C18G, G2A U47G is higher in self-cleavage: 0.111 for the first, 0.374 for the second.

First: G81C C85U
Second: C4G U69C
The self-cleavage of the first is lower: 0.244 for the first, 0.308 for the second.

Compared with C4U U60A, C4U G35C is lower in self-cleavage: 0.831 for the first, 0.119 for the second.

First: C18G G39C
Second: A8C G40U
The self-cleavage of the first is lower: 0.0755 for the first, 0.345 for the second.

Compared with A45G A83G, U23A A78G is lower in self-cleavage: 0.95 for the first, 0.697 for the second.

Going from A8G A77C to U20C G74C, the self-cleavage falls from 0.277 to 0.107.

First: C30U C44A
Second: U12C G40U
The self-cleavage of the first is higher: 0.117 for the first, 0.0627 for the second.

Going from U9G G31U to G31A A83U, the self-cleavage falls from 0.554 to 0.178.

Going from U12C G25C to G17A G25A, the self-cleavage rises from 0.0923 to 0.117.

Compared with C13U C62G, G6U A78G is lower in self-cleavage: 0.554 for the first, 0.229 for the second.

Going from C15A C26U to G31U A56G, the self-cleavage falls from 0.895 to 0.386.

Going from G50U C58U to C57U C66A, the self-cleavage falls from 0.909 to 0.878.

Compared with G50A G81U, C57G C64U is higher in self-cleavage: 0.281 for the first, 1.05 for the second.

Compared with C19G A51U, A78C U79A is higher in self-cleavage: 0.0678 for the first, 0.0978 for the second.

Going from C24G A78U to C32A C85U, the self-cleavage rises from 0 to 0.231.

Compared with C32U C48A, C13U C58U is lower in self-cleavage: 1.04 for the first, 0.403 for the second.

Compared with G40A G68A, A42G G55C is lower in self-cleavage: 1.01 for the first, 0.675 for the second.

First: C3A G74U
Second: G55U G74U
The self-cleavage of the first is lower: 0.156 for the first, 0.707 for the second.

Going from A8G G73C to G40U A56G, the self-cleavage rises from 0.437 to 0.677.

Going from G6A G17A to G2A U20G, the self-cleavage falls from 0.318 to 0.

Going from C4G C32U to G10U C32G, the self-cleavage falls from 0.086 to 0.0554.

Variant G40U C85G has a self-cleavage of 0.612.
